The values below come from patent publication US20240309072A1 (Regeneron, published 2024).

Read-outs that look alike come from different tables or passages of the source.

Holding throughout (experiment): cell-based or functional assay
Test [1] deals with T1, SARS-COV-2 Spike, D614G (SARS-COV-2, UniProt P0DTC2 14-1273).
The target of test [2] is T1, SARS-COV-2 Spike, D614G. This is another data set of the same source.
Test [3] addresses T2, SARS-COV-2 Spike, Omicron variant BA.2 (SARS-COV-2, UniProt P0DTC2 14-1273).
In test [4] the target is T3, SARS-COV-2 Spike, Omicron variant BA.4/BA.5 (SARS-COV-2, UniProt P0DTC2 14-1273).
For test [5], the target named is T2, SARS-COV-2 Spike, Omicron variant BA.2. This is another data set of the same source.
The target in test [6] is T3, SARS-COV-2 Spike, Omicron variant …. This is another data set of the same source.
The target of test [7] is SARS-COV-2 Spike, Omicron variant BA.2.12.1 (SARS-COV-2, UniProt P0DTC2 14-1273).
Test [8] addresses SARS-COV-2 Spike, Omicron variant BA.2.75 (SARS-COV-2, UniProt P0DTC2 14-1273).
Test [9] deals with T4, SARS-COV-2 Spike, Omicron variant BA.1 (SARS-COV-2, UniProt P0DTC2 14-1273).
The target of test [10] is T1, SARS-COV-2 Spike, D614G. This is another data set of the same source.
The target of test [11] is T4, SARS-COV-2 Spike, Omicron variant BA.1. This is another data set of the same source.

B1: REGN10933 + REGN10987 (other)
VH 1: QVQLVESGGGLVKPGGSLRLSCAASGFTFSDYYMSWIRQAPGKGLEWVSYITYSGSTIYYADSVKGRFTISRDNAKSSLYLQMNSLRAEDTAVYYCARDRGTTMVPFDYWGQGTLVTVSS
VL 1: DIQMTQSPSSLSASVGDRVTITCQASQDITNYLNWYQQKPGKAPKLLIYAASNLETGVPSRFSGSGSGTDFTFTISGLQPEDIATYYCQQYDNLPLTFGGGTKVEIK
VH 2: QVQLVESGGGVVQPGRSLRLSCAASGFTFSNYAMYWVRQAPGKGLEWVAVISYDGSNKYYADSVKGRFTISRDNSKNTLYLQMNSLRTEDTAVYYCASGSDYGDYLLVYWGQGTLVTVSS
VL 2: QSALTQPASVSGSPGQSITISCTGTSSDVGGYNYVSWYQQHPGKAPKLMIYDVSKRPSGVSNRFSGSKSGNTASLTISGLQSEDEADYYCNSLTSISTWVFGGGTKLTVL
Consider B1, for which the “pseudovirus neutralization IC50” value in the test with SARS-COV-2 Spike, D614G [1] stood at 12 pM; with SARS-COV-2 Spike, D614G [2] it was 14.7 pM; in test [3] it was 4770 pM; in test [4], 3370 pM. For the same molecule, the “Fold Change over R10933 + R10987 against D614G” value (from here on “Fold Change over R10933 + R10987”) was determined as 1 fold in the test with SARS-COV-2 Spike, D614G [2]; 326 fold in test [3]; 230 fold in test [4].

B2: REGN10987 (antibody, V domains shown)
VH: B1 VH 2
VL: B1 VL 2
For the molecule B2, the “Fold change over R10987 against D614G” value in test [5] is 199 fold; in [6], 176 fold; in test [7], 279 fold. Moreover, the “pseudovirus neutralization IC50” value in [5] was 1060 pM; in [6], 933 pM; in [7] it was 1480 pM; with SARS-COV-2 Spike, D614G [2] it was 13.1 pM; in test [3], 2180 pM; in [4] it was 3460 pM. Further, the “Fold Change over R10933 + R10987” value was 0.89 fold in the test with SARS-COV-2 Spike, D614G [2]; 149 fold in test [3]; 236 fold in test [4].

B3: REGN10933 (antibody, V domains shown)
VH: B1 VH 1
VL: B1 VL 1
For the molecule B3, in the test with SARS-COV-2 Spike, D614G [2], the “Fold Change over R10933 + R10987” value amounted to 1.98 fold and the “pseudovirus neutralization IC50” value came out at 29.1 pM. In test [8], the “Fold Change over R10933 + R10987” value came to 148 fold and the “pseudovirus neutralization IC50” value came out at 2170 pM.

B4: REGN14256 (antibody, V domains shown)
VH: QVQLQESGPGLVKPSETLSLTCTVSGGSISSHYWSWIRQPPGKGLEWIGYIYYSGSSNYNPSLKSRVTISVDTSKNQFSLKLNSVTAADTAVYYCARHYDILTGFDWFDPWGQGTLVTVSS
VL: QSVLTQPPSVSGAPGQRVTISCTGSSSNIGTHYDVHWYQQLPGTAPKLLIYGNSNRPSGVPDRFSGSKSGTSASLAITGLQAEDEADYYCQSFDNSLTAPYVFGTGTKVTVL
For the molecule B4, in the test with SARS-COV-2 Spike, D614G [2], the “Fold Change over R10933 + R10987” value was 0.77 fold and the “pseudovirus neutralization IC50” value was determined as 11.4 pM.

B5: REGN14287 (antibody, V domains shown)
VH: QVQLVQSGAEVKKPGSSVKVSCKASGGTFSNNAISWVRQAPGQGLEWMGKIIPILGIGGDAQKFQGRFTITADKSTSTAYMELSSLRSEDTAVYYCANSGDSRPHAFDIWGQGTMVTVSS
VL: QSALTQPASVSGSPGQSITISCTGTSSDVGSYNLVSWYQQHPGKAPKLMIYEVSKRPSGVSNRFSGSKSGNTASLTISGLQAEDEADYYCSSYAGSRREVFGGGTKLTVL
Regarding B5, the “Fold Change over R10933 + R10987” value with SARS-COV-2 Spike, D614G [2] is 6.18 fold; in test [8], 3.94 fold; in test [9], 3.28 fold; in test [3], 1.94 fold; in [4], 3.41 fold. Moreover, the “pseudovirus neutralization IC50” value came out at 90.6 pM with SARS-COV-2 Spike, D614G [2]; 57.8 pM in test [8]; 48.1 pM in test [9]; 28.4 pM in test [3]; 50 pM in [4].

B6: REGN14315 (antibody, V domains shown)
VH: QVQLVQSGAEVKKPGSSVKVSCKASGDTFSTYAINWVRQAPGQGLEWMGRFIHIFGTANYAQKFQGRVTITADESTSTAYMELRSLRSEDTAVYYCARDGVDYGDYRPDYWGQGTLVTVSS
VL: EIVLTQSPGTLSLSPGERATLSCRASQSVSSNYLAWYQQKPGQAPRLLIYGASSRATGIPERFSGSGSGTDFTLTISRLEPEDFAVYYCQQYGSSLYTFGQGTKLEIK
On to B6, for which the “Fold change over R10987 against D614G” value in the test with SARS-COV-2 Spike, D614G [10] stood at 0.22 fold; in test [11], 1.03 fold; in test [5] it was 6.78 fold; in test [6], 9.38 fold; in [7] it was 12.7 fold. The “pseudovirus neutralization IC50” value in the test with SARS-COV-2 Spike, D614G [10] was determined as 1.15 pM; in test [11] it was 5.47 pM; in [5] it was 35.9 pM; in [6] it was 49.7 pM; in test [7], 67.3 pM; with SARS-COV-2 Spike, D614G [2], 8.78 pM. Also, the “pseudovirus neutralization IC50” value in test [8] amounted to 1280 pM; in test [9] it was 40.4 pM; in [3], 168 pM; in test [4] it was 159 pM. In addition, the “Fold Change over R10933 + R10987” value with SARS-COV-2 Spike, D614G [2] came out at 0.6 fold; in test [8], 87 fold; in test [9], 2.76 fold; in test [3], 11.5 fold; in [4] it was 10.8 fold.

B7: REGN14315 + REGN10987 (other)
VH 1: B6 VH
VL 1: B6 VL
VH 2: B1 VH 2
VL 2: B1 VL 2
In the case of B7, the “Fold change over R10987 against D614G” value with SARS-COV-2 Spike, D614G [10] came out at 0.7 fold; in [11], 3.18 fold; in test [5], 13.2 fold; in [6], 20.7 fold; in test [7] it was 21 fold. In addition, the “pseudovirus neutralization IC50” value worked out at 3.68 pM in the test with SARS-COV-2 Spike, D614G [10]; 16.9 pM in test [11]; 69.9 pM in [5]; 110 pM in [6]; 111 pM in [7].

B8: REGN14287 + REGN14315 (other)
VH 1: B5 VH
VL 1: B5 VL
VH 2: B6 VH
VL 2: B6 VL
With B8, the “Fold Change over R10933 + R10987” value in the test with SARS-COV-2 Spike, D614G [2] worked out at 0.76 fold; in test [8], 20.5 fold; in [9], 6.11 fold; in [3] it was 9.75 fold; in [4], 14.9 fold. Besides, the “pseudovirus neutralization IC50” value turned out to be 11.1 pM in the test with SARS-COV-2 Spike, D614G [2]; 300 pM in test [8]; 89.6 pM in [9]; 143 pM in test [3]; 219 pM in test [4].
